Results published in the supplement of paper PMC12636428.

Test system: Saccharomyces cerevisiae
Assay: transcriptional activation domain activity (GFP:mCherry ratio, weighted mean of sorted bins, harmonized to initial dataset scale) (arbitrary fluorescence ratio units); higher = stronger transcriptional activation
Conditions: beta-estradiol 1 µM; induction time 4 h
Method: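 53-aa protein tiles (fungal proteins plus yeast TF control tiles) fused C-terminally to a DBD-estrogen-binding domain-mCherry synthetic TF, integrated in S. cerevisiae (URA3 locus) with a GFP reporter. Cells were induced with 1 uM beta-estradiol for 4 h at 30 C, FACS-sorted into 8 bins by GFP:mCherry ratio and barcodes sequenced. Activity is the read-weighted mean bin fluorescence (GFP:mCherry), averaged over barcodes (median 12); tiles under 50 reads were discarded. New active-learning values were harmonized by linear fit onto the scale of the initial (Hummel et al.) dataset. The assay saturates at low and high signal.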

Sequence	transcriptional activation domain activity
AEYDVVLLKRLLYELNGRRNRLMVLPSRLALWEIVMPWVIDLVCRVRFNVTYT	64600
AFAGVLLCYFFILFYFIFFFLFFSWLLLLVEYIVWDNLINLLFLVSCFSFFFA	55300
AFEVSGKGRSRTREKVTLDLEELAGGAIDMSKSDLEHLVIHLFIKSYLRMSFV	43100
AFGGGNTTGGGMFGNNTSKPAFGGTSNTGGALFGGGSNTNTGTAGFGTSFGGT	13900
AFHKLQLERGWTGAKMVMHLLKVYFSWQYGHHCTVYRPIFMRDMALGGPYFSQ	55200
AFIHRLHEVYIVAWCMKNVHFMYLHPGVPFYVLCDCTRGDTIMTVHACAEPPP	63000
AFLCWVAPNNATANFIGAGFGGMGFLNLSLDWSNISNLYNLFLTPWWTQVVVY	83700
AFLCWVAPNNQVANFLGSGFGGMGFLNLSLDWSNISTNGSLFLTPWWTQVVMF	52500
AFLLFLIYLTFFCWVCFATSATWVWSEILSDNQYTESFMPINDVLLAVLSGII	38700
AFLLFLIYLTFFCWVCFATSATWVWTEILSDNQYTESFMPINDVLLAVLSGII	47600
AFLLFLIYLTLFCWVCFATSSTWVWSEILSDGQYTESFMPVNYVLLAVLSGII	49600
AFLLFLLYLTFFCWVCFATSATWVWSEILSDNQYTESFMPINDVLLAVLSGII	53100
AFLLPFANHHRFVSYCLYVFGFIFFVFSLEKGYYKQQFTQFCVTHMCLLLVVF	39800
AFLVGGGSAFWVLGYGLFYWASRLSLDSFTSVMLYLGYLLLLVLLVFLVTGTI	42700
AFMVSRMVILPFVYSLPVLYDILRPFTAHFLRPKFTLTFLWTHFDLITRVFFL	53400
AFRWIAAFYGLTLATHFTGTVILVSHIAHHVVQAKCILGHRGGPYFYIMRVLV	61400
AFSFALFDFDTLAGTFPFDSLGYSDDISTLTDPLIPMNYDPTPFSWTPRTTLA	54300
AFVLFLIYLTFFCWLCFATSASWVWSEILSDGQYNESFMPVNYVLLAVLSGII	53800
AFVLFLVYLTLFCWVCFATSSSWVYSEILNEGQYTESFMPVNYVLLAVLSGII	64600
AFVNFIYVEDLLNFARTKLGVKWYFSHNLCIYVITHLLHRNMFSSEKVLQMSY	83400
AGAAAASTAAEADGEKDGEEGETKPAAPAKKPRKARAKKQVKSEEKAVEEATG	19300
AGAKQLAYPQKLALIQYSDHISLNILVGKGWQELNAELVCLFVILARNIFVML	45600
AGALLDLYLRRNRCYVSNGYLGCSVLYLSTSLVVSCFLSWVTATILIILDIKR	83600
AGAPVFGLPPFRWWRFNVFWMFWCFFWNLQGVINLVTLDINGYLSIFIPFITI	58700
AGDAFGAVESVKSASDIMSPVSGEVVEANVALKDKPALINRSPEEEGWIVRVR	52900
AGDKPEKSKKDKKKEKEEKKKAAVAAEKEKQEKGDEAVAAAPSPVAAATPSLL	29900
AGDMGIERTGVDLHNGKHPLNALLKAIVGKLHLPLYFHWGPLNIGSCFSIPYA	50300

Sequence	transcriptional activation domain activity
AGDTSDGESASTPAHSSHQSRKQQVRHRASVACASCRERRIRCVVPEGASECT	27400
AGEAPIAEGQQAQEARPAAEGAGAGTENQPGRAEGEAAKAEAQAEQQQQQGQA	10300
AGEKADAPNGEGAGEGNRRRPSGRGRGRGRGGRGARNGRDGAQEEGAEAAAAP	14300
AGGAFETGGKRRKGKEKVRLDYNAIAGGQVALVKDDLELLIVHLLISRYLGEA	19000
AGGEAAAGGEAAAGEGAAAGGEAKAGEKAAGEGAKAGEEAAGEAKVEAAKPAA	18400
AGGGNHPPPPPPPPPPAGRSGGAPPPPPPPPPPPPGAGGGNHPPPPPPPPPPP	23500
AGGGRKAKATQTGAGASRQKTKTGFQTGRSRRAGNAKTKTNRRAINKPRNGDS	28900
AGIRLLERAWYWLHGRYRFTAGYVAELLLNGFKRPHGLLNAYVHHFTNFNITD	72000
AGKKTVTSEEAEVKVEVEAEVGVEVDIEPAAAKKPAKKTKAKVKTIAEEEVKV	31900
AGLIVLSGRFNGVVRCLREGFRLRTNIDKCMIFYISCKIALISLFTLLLLVEG	46100
AGLTLPRTSDYSLFYYFLLWFTLFGLAMLFIIIHGIDYVSWPRLIPLTDIIYY	17600
AGNATAGTGTGKGKGKGKGKGKGKGKKAGKNAGKNAGKNAGKNSTAAAGGQQK	20100
AGNGWLLVGWFILHHFVVVSGILVAMLCLSFWDLWGSPGSPLLSRPWVAACFA	50500
AGPARTGSSSSSSSSDEDKKKKKDKAEEKVEEKKEKPEEKAEDKKEASTAVAA	23300
AGQILANQVIITNLTNFIYSITPLPVRYYYLLEMLKFIFFLFMLGMLPLALCA	52400
AGQLGYDPVFGICWYNNSDPAMKLRWMLGSQLFWLLFMSTSEVVFFLVLVCFM	43500
AGQVVQETVHRAGDALKETAESAAQHVFSPRRRRRRRRSSRTGSERAVVCCSR	62000
AGRGGERRRRGLRRGRGRGAGAAARGRDGVRDDGERVAARVRVRVCARVCVCV	42600
AGRWQYATLFFSGVSGGATLALSLCVITHPSLLTRIVVICIFVTLISAFTILP	27900
AGSGGEGADGNETRRRSSGRGRGRGRGRGGRASRGGRGGKSEGAEGFTEKAEG	15900
AGSSTFRDKGKGRASDAGPVSRTGDNEGGEESAGEGNQREKKRVKKEVKKAPR	20300
AGTVPLMIYSTRLARESIGAWRLACLTLFIVTQIRGSVVLLAKSKLWTHILSC	74600
AHACIVLVVCEIDKTLGHSKHLLMIWLMRLLLLILNIMTIVGLFWSFLKCLDV	70900
AHQRTTGASAEEKLALEVVLIMRNDLITHVIVYVLRSFLVYNAPLTGPLAEKL	55000
AHSKKKTCDVCKYPYSFTKVYAQDMPARLPVFLLLRRLAQQGALAMLFAIRAV	73300
AHVGVGISGVEGLQAARSADIAISQFRYLKKLLLVHGAWSYRRLSKLILYSFY	82600
AHVTMPYLLAIACHTAGIICMWICYCACLVWCSTVLPILLIIIIILIVFLNAN	25200

Sequence	transcriptional activation domain activity
AHYLNHNPHQPSMGFDQALGLKLSPSSSGLLSTNESNAIEQFLDNLISQDMMS	110000
AIAEYKWVHLKKGAELTLIDVYDGCTRGLSGFSLTIRAMHFDFVLLVAFLFHL	50400
AIATPVCAAGDFPGNLLLHHSITIPFIYVTLSFFYIFALFLFFLLSIFLVAWL	50300
AIEEIRQDNESRQRENRVVYDRTDKDNERNESLNHQQGIRLVIIDSIHQPVTT	45700
AIENGGASDGEPKKRVRKRGGRKNKARRDSAAAAAAAAAAAAAGGQSSAALAP	< 6570
AIEQFLDNLISQDMMSSNASMNSESHLHIRSPKKQHRYTELNQRYPETHPHSN	8240
AIFMSDGSQALCRLIYLIGIATRFFGLSMMLCIVVDVLNLVTFYLNVFYLIQW	47500
AIGISGYVLPCLYRLALLVLNTTPNQPLDALLSFSHYTLQNSALAHFLPLFVN	53400
AIHRQLVESILGTTLRCTADISALDVSIADTLWYLLDGTARMVIQFFAVVLFA	62700
AILDLAFYIRWQNNNYHLAPSIPLSKMYSNSLLVVLNARIKIVGGRNEYKTNS	31900
AILIRSIFRVAEFAGGCVVSFSLWMCHKTTCIFLRFDTLPLWLAMSLYCVVWP	49700
AILKCIACHNGAMDSVRLLSVLTVPSGPALAHVHLCLLRYLKNRVISEQFGPS	21100
AILLFIELASMGGFTWHLLSGLFFGDVCLIYMDLDDTLFFLFVLVALFSQSFV	46700
AILLGEAYGYRILPFVPVWTIFATVNLAYAVCSTSWLLYWVYLVCCWPTLLIV	55500
AILLLSAYVLFLVVWLIFFSRVILLIPFFPGTPYNLAMPVVLLGLFYCFVFTW	32700
AIMIMCLLLFENEFLNIVAISFTALVLNELIMVALEITTWHIYMILAEIVTLF	55800
AINFWFFLTVYYGFYNLVGLLWITKIFNMYSLNWWPPQLGFPPTFTFFSCFPL	51500
AINTAKAEIDGVREIMTENIERVLERGEHMSVLVDKTGRLGENARDFRVRSRT	29100
AINVSFLHWIYIFHATGKHKYASQLARYLKNLHEVHPPELSQWLIEVFRKCHI	61400
AINYASMCKQYERAEYTQRLMIELDPVLRHSWSRRLATWRLTETWTHYLVLNI	68900
AIRRSFAHVFCLCCIMEFPTFILGLGSLYPSLRSNVFFALSFFATRIVLHLML	65700
AISKLGQIMLYILKCLGLLKVVRKDDQGRIVECNNLTLINLVLTYTGPLPERN	46000
AITRLSLVIDALKEGMRYDCDHVLETYQYDVLLVAGYFYLAAILDKSGVDPTA	52000
AIYSNIMGFLGGVAWAMLVAHICQLFPNACAAAIVTRFFRIMYQWKWPQPVLL	64900
AKAAEAVVAPEADAEKAEEAVVEKPKSTKGRKRKADEEDAEEVAAEANGAEAA	28200
